Assay results reported in article PMC12135937.

Experiments:
[1] = target: DIP-β isoform C (Drosophila melanogaster); experiment: SPR; Biacore T100, CM4 chip; DIPs immobilised by amine coupling (700-900 RU), monomeric Dpr analytes in 3-fold dilution series (0.012 to 9, 27 or 81 µM); 25 °C; 10 mM Tris-HCl pH 7.2, 150 mM NaCl, 1 mM EDTA, 1 mg/mL BSA, 0.01% Tween-20; equilibrium responses fit to a 1:1 model
[2] = target: DIP-β isoform G (Drosophila melanogaster); experiment: as above
DIP-β isoform G (Drosophila melanogaster), sequence (main, as listed by the source): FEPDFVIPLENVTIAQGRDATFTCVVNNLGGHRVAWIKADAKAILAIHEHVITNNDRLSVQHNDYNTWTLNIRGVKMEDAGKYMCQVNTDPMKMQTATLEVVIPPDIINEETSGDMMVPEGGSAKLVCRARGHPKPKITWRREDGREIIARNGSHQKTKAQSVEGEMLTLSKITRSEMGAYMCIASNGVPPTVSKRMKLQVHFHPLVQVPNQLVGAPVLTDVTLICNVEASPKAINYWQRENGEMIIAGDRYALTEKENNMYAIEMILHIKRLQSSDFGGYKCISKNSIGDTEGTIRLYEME

DIP-β isoform C (Drosophila melanogaster), sequence (main, as listed by the source): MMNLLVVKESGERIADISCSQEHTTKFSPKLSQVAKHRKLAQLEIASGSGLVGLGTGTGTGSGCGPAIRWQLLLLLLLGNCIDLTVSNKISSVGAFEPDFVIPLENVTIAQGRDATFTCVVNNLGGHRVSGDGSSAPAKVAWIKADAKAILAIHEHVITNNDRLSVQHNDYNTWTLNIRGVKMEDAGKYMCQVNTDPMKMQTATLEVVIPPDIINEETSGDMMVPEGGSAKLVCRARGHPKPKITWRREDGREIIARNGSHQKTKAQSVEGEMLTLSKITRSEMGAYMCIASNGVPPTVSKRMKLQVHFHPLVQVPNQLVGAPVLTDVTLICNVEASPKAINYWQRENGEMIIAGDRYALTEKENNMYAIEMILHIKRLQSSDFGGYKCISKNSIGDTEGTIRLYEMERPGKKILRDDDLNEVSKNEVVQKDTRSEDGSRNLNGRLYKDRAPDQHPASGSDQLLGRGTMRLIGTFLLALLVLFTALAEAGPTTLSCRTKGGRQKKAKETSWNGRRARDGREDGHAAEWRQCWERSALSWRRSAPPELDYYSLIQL

Row | Kd [1] [µM] | Kd [2] [µM] | Substance
1 | 1.32 | 0.789 | Dpr8 (natural protein)
2 | 5.97 | 3.41 | Dpr9 (natural protein)
3 | 106 | 180 | Dpr11 (natural protein)
4 | 180 | 60 | Dpr16 (natural protein)
5 | 176 | 58.7 | Dpr17 (natural protein)
